Test results reported in paper PMC9536298.

Molecular target: T1, GST-ZPR1 (human, UniProt O75312 1-459)
T1 sequence: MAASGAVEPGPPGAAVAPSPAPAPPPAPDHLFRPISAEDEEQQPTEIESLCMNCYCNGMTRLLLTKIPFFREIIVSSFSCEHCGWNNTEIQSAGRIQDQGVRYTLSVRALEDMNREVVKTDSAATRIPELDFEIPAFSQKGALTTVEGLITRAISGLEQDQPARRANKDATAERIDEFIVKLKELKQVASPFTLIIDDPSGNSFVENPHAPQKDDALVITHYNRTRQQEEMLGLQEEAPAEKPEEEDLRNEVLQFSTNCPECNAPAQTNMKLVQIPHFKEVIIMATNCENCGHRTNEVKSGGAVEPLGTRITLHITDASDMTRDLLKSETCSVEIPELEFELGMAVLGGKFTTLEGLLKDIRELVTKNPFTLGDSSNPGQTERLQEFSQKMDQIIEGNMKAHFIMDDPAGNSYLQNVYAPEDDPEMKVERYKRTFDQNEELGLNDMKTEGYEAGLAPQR
Experiment: EMSA

CGAAACTACCTTCAACTCCATCATGAAGTGTGACGTGGAC (ssDNA) [DNA* 40 nt]: binds.
